# In patent US20230277613A1, “Polysaccharide-Rich Bombax Costatum Flower Extract” (priority 2020, published 2023):
# Marks after values point to notes of the source that are not given here.
# Test system: normal human keratinocyte monolayer (NHK)
# Test: Scratch assay, migration of NHK
# Type: cell-based
# Conditions: EGF 100 ng/ml; 5 hours
# Protocol: Scratch Assay: a lesion was performed on a mat of normal human keratinocyte monolayer (NHK) at confluence before treatment with BCP extract at 0.01% and 0.05% dry matter or with EGF (Epidermal Growth Factor) at 100 ng/ml. A photo was taken at the start of treatment and after 5 hours of incubation in order to measure the rate of progression of the HCNs within the lesion. The percentage of coverage was evaluated under the different conditions by image analysis. The significance of the results was assessed by Student's t test.
molecule,measurement,value
"EGF: Epidermal Growth Factor, reference in the scratch assay (protein, UniProt P01133 23-1207, looked up, Pro-epidermal growth factor) Pro-epidermal growth factor: PQHWSCPEGTLAGNGNSTCVGPAPFLIFSHGNSIFRIDTEGTNYEQLVVDAGVSVIMDFHYNEKRIYWVDLERQLLQRVFLNGSRQERVCNIEKNVSGMAINWINEEVIWSNQQEGIITVTDMKGNNSHILLSALKYPANVAVDPVERFIFWSSEVAGSLYRADLDGVGVKALLETSEKITAVSLDVLDKRLFWIQYNREGSNSLICSCDYDGGSVHISKHPTQHNLFAMSLFGDRIFYSTWKMKTIWIANKHTGKDMVRINLHSSFVPLGELKVVHPLAQPKAEDDTWEPEQKLCKLRKGNCSSTVCGQDLQSHLCMCAEGYALSRDRKYCEDVNECAFWNHGCTLGCKNTPGSYYCTCPVGFVLLPDGKRCHQLVSCPRNVSECSHDCVLTSEGPLCFCPEGSVLERDGKTCSGCSSPDNGGCSQLCVPLSPVSWECDCFPGYDLQLDEKSCAASGPQPFLLFANSQDIRHMHFDGTDYGTLLSQQMGMVYALDHDPVENKIYFAHTALKWIERANMDGSQRERLIEEGVDVPEGLAVDWIGRRFYWTDRGKSLIGRSDLNGKRSKIITKENISQPRGIAVHPMAKRLFWTDTGINPRIESSSLQGLGRLVIASSDLIWPSGITIDFLTDKLYWCDAKQSVIEMANLDGSKRRRLTQNDVGHPFAVAVFEDYVWFSDWAMPSVMRVNKRTGKDRVRLQGSMLKPSSLVVVHPLAKPGADPCLYQNGGCEHICKKRLGTAWCSCREGFMKASDGKTCLALDGHQLLAGGEVDLKNQVTPLDILSKTRVSEDNITESQHMLVAEIMVSDQDDCAPVGCSMYARCISEGEDATCQCLKGFAGDGKLCSDIDECEMGVPVCPPASSKCINTEGGYVCRCSEGYQGDGIHCLDIDECQLGEHSCGENASCTNTEGGYTCMCAGRLSEPGLICPDSTPPPHLREDDHHYSVRNSDSECPLSHDGYCLHDGVCMYIEALDKYACNCVVGYIGERCQYRDLKWWELRHAGHGQQQKVIVVAVCVVVLVMLLLLSLWGAHYYRTQKLLSKNPKNPYEESSRDVRSRRPADTEDGMSSCPQPWFVVIKEHQDLKNGGQPVAGEDGQAADGSMQPTSWRQEPQLCGMGTEQGCWIPVSSDKGSCPQVMERSFHMPSYGTQTLEGGVEKPHSLLSANPLWQQRALDPPHQMELTQ",Evolution compared to the control,+85% **
